Target: recombinant IL-8 (UniProt P10145)
Sequence (P10145 28-99): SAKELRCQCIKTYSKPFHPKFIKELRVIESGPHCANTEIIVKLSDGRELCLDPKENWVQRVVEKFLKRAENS

Substance: SpyCEP in cell-free GAS culture supernatants
- IL-8 degradation (uncleaved IL-8 by ELISA): the IL-8 degrading activity of SpyCEP
